Data published in patent US9393284B2, “Visfatin therapeutic agents for the treatment of acne and other conditions” (ARAVA BIO-TECH LTD., priority 2009, dated 2016).

Columns and labels:
[1] = test system: sebaceous glands; test: Number of sebocytes in sebaceous glands of adult BalbC mice after topical or intradermal visfatin (H&E staining); format: in vivo, Mus musculus; settings: 0.01 μg/ml, 200 μL once daily for 4 days
Experimental: Preparation of Paraffin Embedded Skin Sections: Skin biopsies were performed on study mice. Skin biopsy samples were fixed in 4% paraformaldehyde then dehydrated with increasing concentrations of ethanol (50-100%). Dehydrated biopsy samples were immersed twice in xylene, then once in a 1:1 solution of paraffin and xylene and finally three times in pure melted paraffin at a temperature of 60° C. Paraffin blocks were then sectioned with a microtome and the resulting sections were mounted on slides.
Hematoxylin & Eosin Staining: Paraffin embedded skin biopsy section slides were incubated at 60° C. for 60 minutes and deparaffinized by washing the slides twice with toluene (100%) for 10 minutes and rehydrating the skin biopsy section slides in decreasing concentration of ethanol (100-50%) for 5 minutes each. The slides then were stained with a ready to use solution of hematoxylin for 5 minutes, rinsed with water, stained with eosin (0.5% in double distilled water) for 1.5 minutes and washed twice by rapid immersion in 70% ethanol. […]
Skin samples were fixed in 4% paraformaldehyde and paraffin embedded. The number of cells with the bubbled shaped morphology characteristic of sebocytes were then counted and calculated as a percentage of the number of total cells in each sebaceous gland by microscopic examination at a magnification of 40× using a Nikon Eclipse 50i microscope. […]

[2] = test system: sebaceous glands; test: Maturation and sebum accumulation of sebaceous glands in newborn BalbC mice treated with visfatin (Oil Red O, H&E); format: in vivo, Mus musculus
Experimental: Preparation of Frozen Skin Sections: Skin biopsies were embedded in optimum cutting temperature compound (OCT) and immediately sectioned by cryostat-microtome and mounted on slides.
Hematoxylin & Eosin Staining: Paraffin embedded skin biopsy section slides were incubated at 60° C. for 60 minutes and deparaffinized by washing the slides twice with toluene (100%) for 10 minutes and rehydrating the skin biopsy section slides in decreasing concentration of ethanol (100-50%) for 5 minutes each. The slides then were stained with a ready to use solution of hematoxylin for 5 minutes, rinsed with water, stained with eosin (0.5% in double distilled water) for 1.5 minutes and washed twice by rapid immersion in 70% ethanol. Thereafter, the slides were dehydrated by washing once with 95% ethanol for 5 minutes, twice with 100% ethanol for 5 minutes and twice with xylene (100%) for 10 minutes. This was followed by the application of ENTELLAN™ (Merck KGaA, Darmstadt, Germany) and the mounting of coverslips.
Oil Red O Staining: Frozen skin biopsy section slides were fixed in 1% neutral-buffered formalin for 5 minutes, washed in deionized water, and incubated in 60% isopropanol for 5 minutes. […]

B1: visfatin: recombinant Mus musculus visfatin (Enzo Life Sciences), in PBS, topical or intradermal solution (protein, UniProt Q99KQ4 1-491, looked up)
Nicotinamide …: MNAAAEAEFNILLATDSYKVTHYKQYPPNTSKVYSYFECREKKTENSKVRKVKYEETVFYGLQYILNKYLKGKVVTKEKIQEAKEVYREHFQDDVFNERGWNYILEKYDGHLPIEVKAVPEGSVIPRGNVLFTVENTDPECYWLTNWIETILVQSWYPITVATNSREQKKILAKYLLETSGNLDGLEYKLHDFGYRGVSSQETAGIGASAHLVNFKGTDTVAGIALIKKYYGTKDPVPGYSVPAAEHSTITAWGKDHEKDAFEHIVTQFSSVPVSVVSDSYDIYNACEKIWGEDLRHLIVSRSTEAPLIIRPDSGNPLDTVLKVLDILGKKFPVTENSKGYKLLPPYLRVIQGDGVDINTLQEIVEGMKQKKWSIENVSFGSGGALLQKLTRDLLNCSFKCSYVVTNGLGVNVFKDPVADPNKRSKKGRLSLHRTPAGNFVTLEEGKGDLEEYGHDLLHTVFKNGKVTKSYSFDEVRKNAQLNIEQDVAPH
number of sebocytes present inside the sebaceous glands relative to control mice ([1]; intradermal): increased | number of sebocytes present inside the sebaceous glands relative to control mice ([1]; topical): increased | sebum in sebaceous glands based on Oil Red O staining ([2]; topical visfatin 0.01 μg/ml 100 μL once daily, day 3 after birth): do contain sebum | maturation of sebaceous glands (H&E staining) ([2]; topical visfatin, day 4 after birth): induces the maturation of sebaceous glands
